Measurements taken from patent publication US20250027068.

Biological target: pooled human IgG (human IgG1,2,3 and 4)

B1: PRT-446 (protein)
chain: MVTSVWTKGVTPPTDFIKGEDVFHAPYKAGQGWYDITKTFNGKDDLLCGAATAGNMLHWWFDQNKDQIEAYLKEHPEKQKINFNGEQMFDVKEAIDTKDDQTNSKLFEYFKEKAFPYLSTKHLGVFPDHVLDMFINGYRLSLTNHGPTPVKEGSKDPRGGIFDAVFTRGDQSKLLTSRHDFKEKTLKEISDLIKQELTEGKALALSHTYANVRINHVINLWGADFDSNGNLEAIYVTDSDSNASIGMKKYFVGVNSAGKVAISAKEIEDDNIGAQVLGLFTLSTGQDIWNQTNLEHHHHHH
  Enzyme Activity Endpoint Assay: Fab′2: 1130 ng/µL
  Enzyme Activity Endpoint Assay: Fc: 427 ng/µL
  Enzyme Activity Endpoint Assay: IgG: 0 ng/µL
  Enzyme Activity Endpoint Assay: scIgG: 0 ng/µL

B2: PRT-458 (protein)
chain: MVTSVWTKGVTPPTDFIKGEDVFHAPYKAGQGWYDITKTFNGKDDLLCGAATAGNMLHWWFDQNKDQIERYLKEHPEKQKINFNGEQMFDVKEAIDTKDSQTDSKLFEYFKEKAFPYLSTKHLGVFPDHVLDMFINGYRLSLTNHGPTPVKEGSKDPRGGIFDAVFTRGDQSKLLTSRHDFKEKTLKEISDLIKQELTEGKALGLSHTYANVRINHVINLWGADFDSEGNLKAIYVTDSDSNASIGMKKYFVGVNSAGKVAISAKEIKEDNIGAQVLGLFTLSTGQDIWNQTNLEHHHHHH
  Enzyme Activity Endpoint Assay: Fab′2: 598 ng/µL
  Enzyme Activity Endpoint Assay: Fc: 224 ng/µL
  Enzyme Activity Endpoint Assay: IgG: 112 ng/µL
  Enzyme Activity Endpoint Assay: scIgG: 226 ng/µL

B3: PRT-456 (protein)
chain: MITSVWTKGVTPPTDFIKGEDVFHAPYKAGQGWYDITKAFDGGDDLLCGAATAGNMLHWWFDQNKDQIEAYLKEHPEKQKINFNGEQMFDVKEAIDTKDDQTNSELFNYFKEKAFPYLSTKHLGVFPDHVLDMFINGYRLSLTNHGPTPVKEGSKDPRGGIFDAVFTRGDQSKLLTSRHDLKNKTLNEISQLIKQELTEGKALALSHTYANVRINHVINLWGADFDAEGNLEAIYVTDSDSNASIGMKKYFVGVNSAGKVAISAKEIEDDNIGAQVLGLFTLSTGQDIWNQTNLEHHHHHH
  Enzyme Activity Endpoint Assay: Fab′2: 1170 ng/µL
  Enzyme Activity Endpoint Assay: Fc: 497 ng/µL
  Enzyme Activity Endpoint Assay: IgG: 0 ng/µL
  Enzyme Activity Endpoint Assay: scIgG: 0 ng/µL

B4: PRT-468 (protein)
chain: MITSVWTKGVTPPTDFIKGEDVFHAPYKAGQGWYDITKAFDGGDDLLCGAATAGNMLHWWFDQNKDQIERYLKEHPEKQKINFNGEQMFDVKEAIDTKDSQTNSELFNYFKEKAFPYLSTKHLGVFPDHVLDMFINGYRLSLTNHGPTPVKEGSKDPRGGIFDAVFTRGDQSKLLTSRHDLKNKTLNEISQLIKQELTEGKALGLSHTYANVRINHVINLWGADFDAEGNLEAIYVTDSDSNASIGMKKYFVGVNSAGKVAISAKEIKEDNIGAQVLGLFTLSTGQDIWNQTNLEHHHHHH
  Enzyme Activity Endpoint Assay: Fab′2: 957 ng/µL
  Enzyme Activity Endpoint Assay: Fc: 385 ng/µL
  Enzyme Activity Endpoint Assay: IgG: 115 ng/µL
  Enzyme Activity Endpoint Assay: scIgG: 66 ng/µL

B5: PRT-494 (protein)
chain: MVTSVWTKGVTPPTDFIKGEDVFHAPYKAGQGWYDITKTFNGKDDLLCGAATAGNMLHWWFDQNKEYIEAYLKKHPEKQKIMFGDQELLDVRKAINTKGSQKNSELFNYFRDKAFPNLSARRLGVMPDLVLDMFINGYYLNVTKTQTTDVNRTYQEKDKRGGIFDAVFTRGDQSKLLTSRHDFKEKGLKEISDLIKQELTEGKALGLSHTYANVRINHVINLWGADFDSDGNLKAIYVTDSDSNASIGMKKYFVGVNSAGKVAISAKEIKEDNIGAQVLGLFTLSTGQDIWNQTNLEHHHHHH
  Enzyme Activity Endpoint Assay: Fab′2: 1210 ng/µL
  Enzyme Activity Endpoint Assay: Fc: 489 ng/µL
  Enzyme Activity Endpoint Assay: IgG: 0 ng/µL
  Enzyme Activity Endpoint Assay: scIgG: 0 ng/µL

B6: PRT-480 (protein)
chain: MITSVWTKGVTPPTDFIYGEDVLHAPYKAGQGWYDITKAFDGGDDLLCGAATAGNMLHWWFDQNKEQIENYLKKHPEKQKINFNGEQMFDVKEAIDTKDSQTNSELFNYFKEKAFPYLSTKHLGVFPDHVIDMFINGYRLSLTNHGPTPVKRGSKDPRGGIFDAVFTRGDQSKLLTNRHDLKNKTLNEISQLIKQELTEGKALGISHTYANVRINHVINLWGADFDAEGNLEAIYVTDSDSNASIGMKKYFVGVNSNGKVAISAKEIEEDNIGAQVLGLFTLSTGQDIWNQTNLEHHHHHH
  Enzyme Activity Endpoint Assay: Fab′2: 846 ng/µL
  Enzyme Activity Endpoint Assay: Fc: 325 ng/µL
  Enzyme Activity Endpoint Assay: IgG: 0 ng/µL
  Enzyme Activity Endpoint Assay: scIgG: 0 ng/µL

B7: PRT-502 (protein)
chain: MITSVWTKGVTPPTDFIKGEDVFHAPYKAGQGWYDITKAFDGGDDLLCGAATAGNMLHWWFDQNKEYIEAYLKKHPEKQKIMFGDQELLDVRKAINTKGSQKNSELFNYFRDKAFPNLSARRLGVMPDLVLDMFINGYYLNVTKTQTTDVNRQEQEKDKRGGIFDAVFGRGDQTKLLTSRHDFKEKGLNEISQLIKQELTEGKALGLSHTYANVRINHVINLWGADFDADGNLEAIYVTDSDSNASIGMKKYFVGVNSAGKVAISAKEIKEDNIGAQVLGLFTLSTGQKIWNKTNLEHHHHHH
  Enzyme Activity Endpoint Assay: Fab′2: 307 ng/µL
  Enzyme Activity Endpoint Assay: Fc: 283 ng/µL
  Enzyme Activity Endpoint Assay: IgG: 66 ng/µL
  Enzyme Activity Endpoint Assay: scIgG: 296 ng/µL

B8: PRT-491 (protein)
chain: MVTSVWTKGVTPPTDFIYGEDVLHAPYKAGQGWYDITKTFNGKDNLLCGAATAGNMLHWWFDQNKEQIENYLKKHPEKQKIIFNNQELFDLKAAIDTKDSQLDSKLFEYFKEKAFPYLSTKHLGVFPDHVIDMFINGYRLSLTNHGPTPVKRGSKDKRGGIFDAVFTRGVQSKLLTNRHDLKNKTLKEISDLIKQELTEGKALGISHTYANVRINHVINLWGADFDAEGNLEAIYVTDSDTNASIGMKKYFVGVNSNGKVAISAKEIEEDNIGAQVLGLFTLSTGQDIWNQTNLEHHHHHH
  Enzyme Activity Endpoint Assay: Fab′2: 769 ng/µL
  Enzyme Activity Endpoint Assay: Fc: 260 ng/µL
  Enzyme Activity Endpoint Assay: IgG: 140 ng/µL
  Enzyme Activity Endpoint Assay: scIgG: 331 ng/µL

B9: PRT-512 (protein)
chain: MITSVWTKGVTPPAKFTQGEDVFHAPYVANQGWYDITKAFDGGDDLLCGAATAGNMLHWWFDQNKEEIEAYLKKHPEKQKIMFGDQELLDVRKVINTKDSQTNSALFNYFKDKAFPNLSARRLGVMPDLVLDMFINGYYLNVYKTQTTDVNRTYQTKDRRGGIFDAVFTRGDQSKLLTERHDLKNKTLKEISDLIKQELTEGKALGLSHTYANVRINHVINLWGADFDSNGNLEAIYVTDSDSNASIGMKKYFVGVNSAGKVAISAKEIKEDNIGAQVLGLFTLSTGQDIWNQTNLEHHHHHH
  Enzyme Activity Endpoint Assay: Fab′2: 884 ng/µL
  Enzyme Activity Endpoint Assay: Fc: 372 ng/µL
  Enzyme Activity Endpoint Assay: IgG: 31 ng/µL
  Enzyme Activity Endpoint Assay: scIgG: 0 ng/µL

B10: PRT-506 (protein)
chain: MITSVWTKGVTPPTDFIKGEDVFHAPYKAGQGWYDITKTFNGKDDLLCGAATAGNMLHWWFDQNKEEIEAYLKKHPEKQKIMFGDQELLDVRKVINTKDSQTNSALFNYFKDKAFPNLSARRLGVMPDLVLDMFINGYYLNVYKTQTTDVNRTYQTKDRRGGIFDAVFTRGDQSKLLTERHDFKEKTLKEISDLIKQELTEGKALGLSHTYANVRINHVINLWGADFDSNGNLEAIYVTDSDSNASIGMKKYFVGVNSAGKVAISAKEIKEDNIGAQVLGLFTLSTGQDIWNQTNLEHHHHHH
  Enzyme Activity Endpoint Assay: Fab′2: 1120 ng/µL
  Enzyme Activity Endpoint Assay: Fc: 453 ng/µL
  Enzyme Activity Endpoint Assay: IgG: 43 ng/µL
  Enzyme Activity Endpoint Assay: scIgG: 0 ng/µL

B11: PRT-357 (protein)
chain: MSQTEDSESLQRLRDIEDFQAEKEKQNVVYTKWLDGVDVKDHDFRKIVDGNSAYYATPLLNGRGWYDINKDFNRDSDKCAAAVAANMFHYWLDRNRDNVDRFLRQNPEKHGIIELPDGQLKLSDFLNTYESDDGYRDKSKLFDFISNNFNGPVWTDKLLDNYINGYAYNYKYGRTIEDPTKNTSKINFFKEVFNEKILTNNHSIRNQNEFSVLLSEALYTGKAIGLSYGPAGLRHSLGHIISVWGADLDADGNVVAIYVTDSDDKKLTIGDERVGLKRYKISTDDEGRLRLTAYEETHNTGGQVRGLWTLDTGKQAWADYFDKTEQTGTDQAEQ
  Enzyme Activity Endpoint Assay (purified): Fab′2: 724 ng/µL
  Enzyme Activity Endpoint Assay (purified): Fc: 389 ng/µL
  Enzyme Activity Endpoint Assay (purified): IgG: 0 ng/µL
  Enzyme Activity Endpoint Assay (purified): scIgG: 313 ng/µL

B12: PRT-372 (protein)
chain: MSQTEDSESLQRLRDIEDFQAEKKKQNVVYTKWLDGVDVKDHDFRKIVDGNSAYYATPLLNGRGFYDINKDFNRDNDKCAAAVAANMFHYWLDRNRDNVDRFLRQNPEKHGIIELPDGQLKLSDFLNTYESDDGYRDKSKLFDFISENFNGPVWTDKLLDNYINGYAYNSKYGRTIEDSTKNTSKINFFKEVFNEKILTNNHSIRNQNEFSVLLIEALYTGKAIGLSYGPAGLRHGLGHIISVWGADLDADGNVVAIYVTDSDDKKLTIGDERVGLKRYKISTDDEGRLRLTAYEETHNTGGQIRGLWTLDTGKQAWADYFDKTEQTGTDQAEQ
  Enzyme Activity Endpoint Assay: Fab′2: 0 ng/µL
  Enzyme Activity Endpoint Assay: Fc: 218 ng/µL
  Enzyme Activity Endpoint Assay: IgG: 122 ng/µL
  Enzyme Activity Endpoint Assay: scIgG: 560 ng/µL

B13: PRT-365 (protein)
chain: MSQTEDSESLQRLRDIEDFQAEKKKQNVVYTKWLDGVDVKDHDFRKIVDGNEAYYATPLLNGRGFYDINKDFNRDSDKCAAAVAANMFHYWLDRNRDNVDRFLRQNPEKHGIIELPDGQLKLSDFLNTYESDDGYRDKSKLFDFISENFNGPVWTDKLLDNYINGYAYNYKYGRLIEDPTKNTSKINFFKEVFNEKILTNNHSIRNQNELSVLLSEALYTGKAIGLSYGPAGTRHSLGHIISVWGADLDADGNVVAIYVTDSDDKKLTIGDERVGLKRYKISTDDEGRLRLTAYEETHNTGGQIRGLWTLDTGKQAWADYFDKTEQTGTDQAEQ
  Enzyme Activity Endpoint Assay (purified): Fab′2: 735 ng/µL
  Enzyme Activity Endpoint Assay (purified): Fc: 385 ng/µL
  Enzyme Activity Endpoint Assay (purified): IgG: 0 ng/µL
  Enzyme Activity Endpoint Assay (purified): scIgG: 312 ng/µL

B14: PRT-618 (protein)
chain: MQITSVWTKGVIPLTPEQFRYNNEDVIHAPYLPHQGWYDITKAFDGGDNLLCGAATAGNMLHWWFDQNKTEIEAYLSKYPEKQKIIFNNQELFDLRAAINTKDSQTNSQLFNYFRDKAFPNLSARQLGVMPDLVLDMFINGYYLNVFKTQSTDVNRPYQDRDKRGGIFDHVFGRGDQTTLLTARHDLKNGGLNDISTIIKQELQSGRALALSHTYANVSISHVINLWGADFNAEGNLEAIYVTDSDANSSIGMKKYYVGINAHGHVAISAKKIEGENIGAQVLGLFTLSSGKEIWQKLSLEHHHHHH
  Enzyme Activity Endpoint Assay: Fab′2: 976 ng/µL
  Enzyme Activity Endpoint Assay: Fc: 419 ng/µL
  Enzyme Activity Endpoint Assay: IgG: 0 ng/µL
  Enzyme Activity Endpoint Assay: scIgG: 0 ng/µL
